Results as given in IntAct's records for PubMed 24413433.

B1: Telomere repeats-binding bouquet formation protein 1 (Mus musculus), Q8C0V1-1 (parent)
chain: MESEKPKKTQEMKTDLKLLLECLKYHMGNPLSQKEVLITIHSVCKQNSDAGIYFREIGGLMFIINLAKSSEQSLVKEAALYTLGSIAEENVYCQQSLCTSELFQDLTGLLTNDDSNTNLKRMSVYVLLVLVSNNRNGQTLVREVGCIEVLSQMFRTVLSNYELNLSDNSVFQSYLLWSSVCSTLCVCVNNPQNDENQMLCCSLFPCVNEWLMNCMRPEVIRPICSFIGLTLANNTHAQNCFVSSGGLDVLCQVLVQLESDSHNTLSSAKLAVIVTKTMDACITDNSAAFTVVLSKYHIVSTLLALLLHESLDSREKFSIILAIGHCTEDCEKNQYELLKNNGLPLMIQALTEFKNEDLSKAATYVLHNCKKITGKLSLSLGQNSFGENEIELKDISEKETLREHWKAAKEILCRIKQFEKGGKEEKQQNRSGHYKDNTPSMKVNIQTNLKRLCADSTGGTRAEDKDINQSRELRSYKPSEIMSKACANENQLTTRKKNTNPVHPFCKEKGQSKIVHETTPSCAQNLDKEKTFDQKDSVSQSSDQVLKHLPHTVKNRKQVPETDPFTLCLDIIDREVGIQATDSCSRMLKYTCSGCIVARKLLNSRNFSKFLHSCAYQCVHHKVIMEAEDKYKNELRKTFICAKKILLTPCRRRQLCKESTASEELKIVHQKPDSKKLPGLEAQALNTSIPEAMERRSPVPGQSGLHKKRRIRKDFTKEEVNYLFHGVKTMGNHWNSILWSFPFQKGRRAVDLAHKYHRLIKGPSCAAL
partner: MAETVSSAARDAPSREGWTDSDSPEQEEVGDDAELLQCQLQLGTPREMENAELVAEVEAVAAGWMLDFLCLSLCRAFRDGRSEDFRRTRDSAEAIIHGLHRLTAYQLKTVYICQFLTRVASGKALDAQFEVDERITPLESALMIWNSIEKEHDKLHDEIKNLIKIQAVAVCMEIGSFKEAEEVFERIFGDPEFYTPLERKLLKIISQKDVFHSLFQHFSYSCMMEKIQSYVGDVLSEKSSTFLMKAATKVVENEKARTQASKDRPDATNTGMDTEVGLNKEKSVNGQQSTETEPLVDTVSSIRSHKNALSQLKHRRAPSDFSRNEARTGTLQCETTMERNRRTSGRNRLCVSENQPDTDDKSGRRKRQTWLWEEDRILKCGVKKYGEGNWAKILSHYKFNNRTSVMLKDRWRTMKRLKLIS

Variants of: B1
Conditions: with terf1_mouse Terf1, P70371

effect of a mutation on the interaction	Variant
disrupting interaction strength	T648D
